This is an account of results in patent US20180265882, “PLANTS WITH INCREASED SEED SIZE” (THE INSTITUTE OF GENETICS AND DEVELOPMENTAL BIOLOGY, published 2018).

For data set [1], the target named is T1, SOD7 (NGAL2, At3g11580) (Arabidopsis thaliana, UniProt Q8RYD3 SEQ:1-267).
T1 sequence: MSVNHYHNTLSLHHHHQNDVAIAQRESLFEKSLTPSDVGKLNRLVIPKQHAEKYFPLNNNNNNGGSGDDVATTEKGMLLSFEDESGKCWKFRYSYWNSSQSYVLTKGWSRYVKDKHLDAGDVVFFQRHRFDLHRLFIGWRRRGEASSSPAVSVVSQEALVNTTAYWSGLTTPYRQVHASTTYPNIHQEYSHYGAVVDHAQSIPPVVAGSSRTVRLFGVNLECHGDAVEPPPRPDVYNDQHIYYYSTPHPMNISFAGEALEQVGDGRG
Nature of the data set: EMSA; binding reduced by unlabeled probe A. The following applies: tags: N-terminal MBP fusion (pMAL-C2), expressed in E. coli BL21(DE3), amylose purified; label: biotin. The procedure: (§1) (A) Expression dynamics of SOD7 and KLU in pER8-SOD7 transgenic plants treated with β-estradiol for 0, 4 and 8 hours. Means were calculated from three biological samples. Values are given as mean±SD. **, P<0.01, compared with the expression level of KLU and SOD7 at 0 hour, respectively (Student's t-test). (B) A 2-kb promoter region of KLU upstream of its ATG codon contains a CACTTG sequence. PF1 and PF2 represent PCR fragments used for ChIP-quantitative PCR analysis. A and A-m indicate the wild-type probe and the mutated probe used in the EMSA essay, respectively. […] Chromatin from 35S:GFP and 35S:GFP-SOD7 transgenic plants was immunoprecipitated by anti-GFP, and the enrichment of the fragments was determined by quantitative real-time PCR. The ACTIN7 promoter was used as a negative control. The fold enrichment was normalized to the ACTIN7 amplicon, set at 1. Means were calculated from three biological samples. Values are given as mean±SD. **, P<0.01, compared with 35S:GFP transgenic plants (Student's t-test). (D) Direct interaction between SOD7 and the KLU promoter determined by EMSA. […] The retarded DNA-protein complex was reduced by competition using the unlabeled probe A.
(§2) The coding sequence of SOD7 was cloned into the NdeI and BamHI sites of the pMAL-C2 vector to generate the construct MBP-SOD7. […]
(In general: Mobility shift assays separate free from complexed probe on a gel.)

For data set [2], the target named is T1, SOD7 (NGAL2, At3g11580). Briefly: EMSA; mutated CACTTG, failed to bind. The note with it: tags: N-terminal MBP fusion (pMAL-C2), expressed in E. coli BL21(DE3), amylose purified; label: biotin. The protocol: as §1, §2

B1: KLU promoter probe A (dsDNA)
DNA 1: TTCTACTACACTTGCTCTCTGTA
DNA 2: TACAGAGAGCAAGTGTAGTAGAA
As for B1, the binding result in the data set with SOD7 (NGAL2, At3g11580) [1] is “binds”.

B2: KLU promoter probe A-m (dsDNA)
DNA 1: TTCTACTAACACCTCTCTCTGTA
DNA 2: TACAGAGAGAGGTGTTAGTAGAA
For B2, in the data set with SOD7 (NGAL2, At3g11580) [2], the binding result is recorded as “no binding”.
